Results on twelve molecules are retold here after US9115185.

Assay [1] has as its target HLA-DR1 (DRB*0101), purified from B-lymphoblastic cell line LG2.1 (human). The assay is described as follows: competition with fluorescent HA 308-319 on purified HLA-DR1.
Assay [2] addresses HLA-DR2 (DRB1*0201 [sic]), purified from B-lymphoblastic cell line IWB (human). The assay is described as follows: competition with fluorescent HA 308-319 on purified HLA-DR2.
The target in assay [3] is T1, HLA-DR3 (DRB*0301), purified from B-lymphoblastic cell line HAR (human).
T1 chain: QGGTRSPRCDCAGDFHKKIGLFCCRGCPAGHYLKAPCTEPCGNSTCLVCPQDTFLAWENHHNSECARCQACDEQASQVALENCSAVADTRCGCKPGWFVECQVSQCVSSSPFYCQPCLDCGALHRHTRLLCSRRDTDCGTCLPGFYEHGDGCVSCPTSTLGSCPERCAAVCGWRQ
The assay is described as follows: competition with fluorescent hsp65 3-13 on purified HLA-DR3.

Assay [4] has as its target HLA-DR4 (DRB*0401), purified from B-lymphoblastic cell line BSM (human). Nature of the assay: competition with fluorescent HA308-319 Y→F on purified HLA-DR4.
Assay [5] deals with HLA-DR7 (DRB1*0701), purified from B-lymphoblastic cell line Pitout (human). Nature of the assay: competition with fluorescent Ii 80-103 on purified HLA-DR7.

B1: HPV16 E7 peptide 71-92, P03129 71-92 (peptide)
peptide: STHVDIRTLEDLLMGTLGIVCP
modifications: not checked
For the molecule B1, the half-maximal inhibitory concentration (IC50) in assay [1] was found to be 12 µM; in assay [2], 2 µM.

B2: HPV16 E2 peptide 271-300 (peptide)
peptide: FNSSHKGRINCNSNTTPIVHLKGDANTLKC
modifications: not checked
Regarding B2, the IC50 in assay [3] came out at 37 µM.

B3: HPV16 E2 peptide 316-345 (peptide)
peptide: SSTWHWTGHNVKHKSAIVTLTYDSEWQRDQ
modifications: not checked
Consider B3, for which, in assay [3], the IC50 came to 30 µM.

B4: HPV16 E7 peptide 41-62, P03129 41-62 (peptide)
peptide: PAGQAEPDRAHYNIVTFCCKCD
modifications: not checked
On to B4, for which the IC50 amounted to 7.4 µM in assay [1], 50 µM in assay [2], 55 µM in assay [3] and 38 µM in assay [4].

B5: HPV16 E7 peptide 1-22, P03129 1-22 (peptide)
peptide: MHGDTPTLHEYMLDLQPETTDL
modifications: not checked
In the case of B5, the IC50 in assay [5] was 7 µM; in assay [2], 10 µM; in assay [3], 0.8 µM; in assay [4] it was 30 µM.

B6: HPV16 E7 peptide 51-72, P03129 51-72 (peptide)
peptide: HYNIVTFCCKCDSTLRLCVQST
modifications: not checked
B6: the concentration for half-maximal inhibition (IC50) amounted to 11 µM in assay [5], 70 µM in assay [1] and 50 µM in assay [3].

B7: HPV16 E2 peptide 301-330 (peptide)
peptide: LRYRFKKHCTLYTAVSSTWHWTGHNVKHKS
modifications: not checked
In assay [4], B7 returned a half-inhibitory concentration (IC50) of 10 µM.

B8: HPV16 E7 peptide 77-98, P03129 77-98 (peptide)
peptide: RTLEDLLMGTLGIVCPICSQKP
modifications: not checked
For the molecule B8, the figures for the half-maximal inhibitory concentration (IC50) in assay [5], in assay [1] and in assay [2] were 0.9 µM, 46 µM and 22 µM, respectively.

B9: HPV16 E2 peptide 331-365 (peptide)
peptide: AIVTLTYDSEWQRDQFLSQVKIPKTITVSTGFMSI
modifications: not checked
B9: the figures for the IC50 in assay [3] and in assay [4] were 10 µM and 15 µM, respectively.

B10: HPV16 E7 peptide 21-42, P03129 21-42 (peptide)
peptide: DLYCYEQLNDSSEEEDEIDGPA
modifications: not checked
In the case of B10, the IC50 in assay [2] turned out to be 12 µM.

B11: HPV16 E7 peptide 11-32, P03129 11-32 (peptide)
peptide: YMLDLQPETTDLYCYEQLNDSS
modifications: not checked
In the case of B11, the IC50 in assay [3] amounted to 50 µM.

B12: HPV16 E7 peptide 61-82, P03129 61-82 (peptide)
peptide: CDSTLRLCVQSTHVDIRTLEDL
modifications: not checked
For the molecule B12, the IC50 in assay [2] is 15 µM; in assay [3], 65 µM.
